Fewer inactive variants are shown than the library holds.

One data set relates to biotinyl-Phe-oxazolone. Nature of the data set: self-aminoacylation, catalytic enhancement (BFO) (fold over background); higher = more active; k-Seq, kA / k0A0; sequences stand for … in GGGAAUGGAUCCACAUCUACGAAUUC…UUCACUGCAGACUUGACGAAGCUG
The essentials:
(§1)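 Mutagenized RNA pools (0.43 μM; 21-nt variable region) were treated with 2–1250 μM of each biotinyl-aminoacyl-oxazolone. Conditions were 50 μL HEPES/NaCl/KCl/MgCl2/CaCl2 buffer, 5% acetonitrile, pH 6.9–7.0, room temperature, 90 minutes. Catalytic enhancement, the median kA relative to the uncatalyzed rate, was derived from streptavidin capture, qPCR and Illumina sequencing.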
For “UAGUUUGCUAAUAGUCGCAUG [Fam3.1 aminoacylation ribozyme variant]”, the self-aminoacylation was 3.23.

On to “AUUCAGCUAGGUCAUCGUGUG [Fam2.2 aminoacylation ribozyme variant]”, for which the self-aminoacylation stood at 3.57.

For the sequence “AAGUCUGCUAAGAGUCGCAAG [Fam3.1 aminoacylation ribozyme variant]”, the self-aminoacylation came out at 4.79.

For the sequence “AAGUUUACCAAUAGUCGCAAG [Fam3.1 aminoacylation ribozyme variant]”, the self-aminoacylation stood at 2.58.

“CUACUUGAAACAAGCGGUCUG [Fam1A.1 aminoacylation ribozyme variant]”: the self-aminoacylation worked out at 4.76.

“AAGUUUGUUAAUAGUCGCAAG [Fam3.1 aminoacylation ribozyme variant]”: the self-aminoacylation turned out to be 2.01.

Turning to “AAGUUUUCUAAUAGUCGCAAC [Fam3.1 aminoacylation ribozyme variant]”, the self-aminoacylation was 2.43.

Take “AAGUUUACUAAUAGCCGCAAG [Fam3.1 aminoacylation ribozyme variant]”: the self-aminoacylation is 2.1.

As to “AAUUUUGCUAAGAGUCGCAAG [Fam3.1 aminoacylation ribozyme variant]”, the self-aminoacylation is 2.23.

For the sequence “CCACACUUCAAGCUAUCGCUC [Fam1B.1 aminoacylation ribozyme variant]”, the self-aminoacylation was 2.03.

Regarding “AUUCACCUAGGUCAUUGGUUG [Fam2.2 aminoacylation ribozyme variant]”, the self-aminoacylation was determined as 2.3.

Regarding “UAGUUUGCUAAUAGUCUCAAG [Fam3.1 aminoacylation ribozyme variant]”, the self-aminoacylation came to 3.9.

As to “CUACGUCAAAGAAUCGGUCUG [Fam1A.1 aminoacylation ribozyme variant]”, the self-aminoacylation was found to be 3.41.

For “AAGUUCGCUGAUAGUCGCAAG [Fam3.1 aminoacylation ribozyme variant]”, the self-aminoacylation turned out to be 5.75.

Take “AAGUUUGCUUAUAGUCGCAGG [Fam3.1 aminoacylation ribozyme variant]”: the self-aminoacylation came to 2.26.

“AAGGUUGCUGAUAGUCGCAAG [Fam3.1 aminoacylation ribozyme variant]”: the self-aminoacylation was found to be 2.05.

“AUUAUCCUGGUCAUCGAGUUA [Fam2.1 aminoacylation ribozyme variant]”: the self-aminoacylation is 2.02.

On to “AUUACCCGGGUCGUCGAGUGA [Fam2.1 aminoacylation ribozyme variant]”, for which the self-aminoacylation came to 3.86.

As to “AAGUUUGCUAAUAGUAGCAAA [Fam3.1 aminoacylation ribozyme variant]”, the self-aminoacylation was 2.93.

Take “AAGUUAGCUAAGAGUCGCAAG [Fam3.1 aminoacylation ribozyme variant]”: the self-aminoacylation was found to be 2.38.

Take “CUACGUCAACCAAUCGGUCUG [Fam1A.1 aminoacylation ribozyme variant]”: the self-aminoacylation came to 3.4.

Consider “CUACUUCAAACAAUCACUCUG [Fam1A.1 aminoacylation ribozyme variant]”, for which the self-aminoacylation came to 2.98.

On to “ACGUUUGCUAAUGGUCGCAAG [Fam3.1 aminoacylation ribozyme variant]”, for which the self-aminoacylation was determined as 3.94.

Regarding “CGACUUCAGACAAUCGGUCUG [Fam1A.1 aminoacylation ribozyme variant]”, the self-aminoacylation was 3.95.

With “AUCCACCUAGGUCAUCGUGUG [Fam2.2 aminoacylation ribozyme variant]”, the self-aminoacylation was 3.96.

“AAGUUUGCUCAUCGUCGCAAG [Fam3.1 aminoacylation ribozyme variant]”: the self-aminoacylation came to 3.33.

“AAGUUUUCUAAUUGUCGCAAG [Fam3.1 aminoacylation ribozyme variant]”: the self-aminoacylation came out at 2.33.

In the case of “CUUACCCUGGUCGUCGAGUGA [Fam2.1 aminoacylation ribozyme variant]”, the self-aminoacylation came out at 5.47.

On to “AUUCACCUAGGUCACCGGAUG [Fam2.2 aminoacylation ribozyme variant]”, for which the self-aminoacylation was found to be 2.86.

Take “AUUCACCUAGGACAUCGUGUG [Fam2.2 aminoacylation ribozyme variant]”: the self-aminoacylation is 3.71.

In the case of “AAGCUUGCUAAUAGUCUCAAG [Fam3.1 aminoacylation ribozyme variant]”, the self-aminoacylation turned out to be 2.19.

On to “AUUCACCUAGGUCUUCGGGAG [Fam2.2 aminoacylation ribozyme variant]”, for which the self-aminoacylation came out at 4.51.

Take “AAGUUAGCUGAUAGUCGCAAG [Fam3.1 aminoacylation ribozyme variant]”: the self-aminoacylation amounted to 2.26.

Take “AUUCACCGAGGUCAUCGUGUG [Fam2.2 aminoacylation ribozyme variant]”: the self-aminoacylation worked out at 6.45.

Turning to “AUUACCCUGGGCAUCGUGUGA [Fam2.1 aminoacylation ribozyme variant]”, the self-aminoacylation worked out at 7.88.

With “AAGUCUGCUAUUAGUCGCAAG [Fam3.1 aminoacylation ribozyme variant]”, the self-aminoacylation amounted to 4.82.

“AAGUUUUCUUAUAGUCGCAAG [Fam3.1 aminoacylation ribozyme variant]”: the self-aminoacylation came out at 3.91.

Consider “AUUCAUCUAGGUCAUCGGCUG [Fam2.2 aminoacylation ribozyme variant]”, for which the self-aminoacylation was 4.5.

With “AAGUUUGCUAAUCGUCGCAAG [Fam3.1 aminoacylation ribozyme variant]”, the self-aminoacylation is 3.12.

In the case of “AUUCACCUAGGUCGUCGGUUG [Fam2.2 aminoacylation ribozyme variant]”, the self-aminoacylation was found to be 4.19.

“AUACGUCAAACAAUCGGUCUG [Fam1A.1 aminoacylation ribozyme variant]”: the self-aminoacylation was 5.56.

As to “AUUACCCUGUUCAUCAAGUGA [Fam2.1 aminoacylation ribozyme variant]”, the self-aminoacylation came out at 2.65.

For the sequence “AAGUAGGCUAAUAGUCGCAAG [Fam3.1 aminoacylation ribozyme variant]”, the self-aminoacylation stood at 3.24.

Consider “AAGUUUGCGAAUAGUGGCAAG [Fam3.1 aminoacylation ribozyme variant]”, for which the self-aminoacylation was found to be 2.12.

Take “AUUCACCUAGGUCACAGGGUG [Fam2.2 aminoacylation ribozyme variant]”: the self-aminoacylation was found to be 5.68.

In the case of “CCACACUUCAAGCGAUGGGUC [Fam1B.1 aminoacylation ribozyme variant]”, the self-aminoacylation was 3.56.

On to “UUACUUCGAACAAUCGGUCUG [Fam1A.1 aminoacylation ribozyme variant]”, for which the self-aminoacylation is 2.19.

As to “CCACACUUCACGCAUUCGGUC [Fam1B.1 aminoacylation ribozyme variant]”, the self-aminoacylation was 2.45.

On to “AUUACCCUGGUCGUCGAGGGA [Fam2.1 aminoacylation ribozyme variant]”, for which the self-aminoacylation was 6.85.

As for “CAACUGCAAACAAUCGGUCUG [Fam1A.1 aminoacylation ribozyme variant]”, the self-aminoacylation was 4.06.

“CCACUUCAAACAACCGGUCUG [Fam1A.1 aminoacylation ribozyme variant]”: the self-aminoacylation turned out to be 2.13.

On to “AAUUUUGCUAAUAGUCGCCAG [Fam3.1 aminoacylation ribozyme variant]”, for which the self-aminoacylation came out at 2.69.

Consider “AGGUUUGCUAAUAGUCGCAUG [Fam3.1 aminoacylation ribozyme variant]”, for which the self-aminoacylation was determined as 3.56.

Consider “GAGUUUGCUAAGAGUCGCAAG [Fam3.1 aminoacylation ribozyme variant]”, for which the self-aminoacylation was determined as 3.01.

Take “AAGUUUGCUAAUGGUCGCACG [Fam3.1 aminoacylation ribozyme variant]”: the self-aminoacylation was determined as 2.96.

With “GAGGUUGCUAAUAGUCGCAAG [Fam3.1 aminoacylation ribozyme variant]”, the self-aminoacylation was 3.14.

In the case of “AAGUUAGCUAAUAGUCGAAAG [Fam3.1 aminoacylation ribozyme variant]”, the self-aminoacylation was 3.83.

Consider “AAGUUUACUAAUAGGCGCAAG [Fam3.1 aminoacylation ribozyme variant]”, for which the self-aminoacylation turned out to be 2.02.

As to “CUAAUUCAAACAAUCGGUCGG [Fam1A.1 aminoacylation ribozyme variant]”, the self-aminoacylation stood at 2.14.

As to “AAGUUGUCUAAUAGUCGCAAG [Fam3.1 aminoacylation ribozyme variant]”, the self-aminoacylation amounted to 2.35.

Regarding “UUACUGCAAACAAUCGGUCUG [Fam1A.1 aminoacylation ribozyme variant]”, the self-aminoacylation came out at 4.6.

Take “AUUACCCUGGUCAACGUGUGA [Fam2.1 aminoacylation ribozyme variant]”: the self-aminoacylation worked out at 4.08.

For “CCACACUUCAAGAAAUCAGUC [Fam1B.1 aminoacylation ribozyme variant]”, the self-aminoacylation came out at 4.56.

For the sequence “AUUCACCAAGGUCAUCGUGUG [Fam2.2 aminoacylation ribozyme variant]”, the self-aminoacylation was 8.03.

In the case of “CAGUUUGCUAAUAGUCGAAAG [Fam3.1 aminoacylation ribozyme variant]”, the self-aminoacylation came to 2.53.

A further data set concerns biotinyl-Trp-oxazolone. As to the kind of experiment: self-aminoacylation, catalytic enhancement (BWO) (fold over background); higher = more active; k-Seq, kA / k0A0; sequences stand for … in GGGAAUGGAUCCACAUCUACGAAUUC…UUCACUGCAGACUUGACGAAGCUG
In a few lines: as §1
For the sequence “CCACACUUCAAACAAUCGGGC [Fam1B.1 aminoacylation ribozyme variant]”, the self-aminoacylation turned out to be 2.65.

For the sequence “AAUUUUGCUAAUAGUCGCUAG [Fam3.1 aminoacylation ribozyme variant]”, the self-aminoacylation came to 2.24.

“AAGAUUGCUAAUAGGCGCAAG [Fam3.1 aminoacylation ribozyme variant]”: the self-aminoacylation turned out to be 2.61.

In the case of “AAGUUAGCUAAUCGUCGCAAG [Fam3.1 aminoacylation ribozyme variant]”, the self-aminoacylation is 2.21.

With “AAGUUUGCUAAGAGUCGCCAG [Fam3.1 aminoacylation ribozyme variant]”, the self-aminoacylation worked out at 2.06.
